Reference: the supplement of paper PMC9170038

System: MS2 coat protein
Assay: apparent KD of MS2 coat protein; designed switch direction (-1 OFF switch, 1 ON switch): -1; higher = weaker reporter binding
In short: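 Transcription of designed RNA switches on Illumina chips was done by stalled E. coli RNA polymerase. SNAP-549-labelled MS2 coat protein was then titrated in doubling steps from 0.7 or 1.5 nM to 3 µM, with steps of 0.8–1.5 h at the lowest and 10–20 min at the highest concentration. The per-design median over clusters of curve-fitted normalised fluorescence is reported as apparent KD.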

[1] = Eterna round: R95, input ligand: FMN 200 uM
[2] = Eterna round: R95, input ligand: microRNA oligo, concentration not stated
[3] = Eterna round: R95, input ligand: none
[4] = input ligand: microRNA oligo, concentration not stated

Sequence | apparent KD of MS2 coat protein (input ligand: FMN 200 uM) [nM] | apparent KD of MS2 coat protein (input ligand: none) [nM] | apparent KD of MS2 coat protein [2] [nM] | also measured
CUCGCAUUAGGAUAUACAUGAGGAUCACCCAUGUAUAAACCCAGGGUCAACGCCAUAUGUAGAAGGAGUAGCGA [Eternabot (L1) Solution 59] (Eterna round: R97, puzzle: Exclusion 3) | 22.2 | 17 | – | –
CUCGGCUAAGGAUAUGCAUAGCGGGCCAAGUCUUCUCAAGUACAUGAGGAUCACCCAUGUAGAAGGUAGUUAAC [EX2 B.29] (Eterna round: R97, puzzle: Exclusion 2) | 22.4 | 24.5 | – | –
CUCGGGCUGGUGAGGAUAUCGGGCUCUAAAGGGCUCGAGAAGGCACAUGAGGAUCACCCAUGUAAUGGCUCGGG [-29.3, -27.9 kcal, A 23%, 4-4bis] (Eterna round: R97, puzzle: Brourd's mod of Exclusion 4) | 17.3 | 24.5 | – | –
CUCGUGGUGAAGGAUAUCCGCGAGAAAAUAAAAGGAGAAGGUCACACAUGAGGAUCACCCAUGUGAUGAAGAAA [Anesanza] (puzzle: Exclusion 6) | – | – | 11.6 | apparent KD of MS2 coat protein [1]: 16.4 nM; apparent KD of MS2 coat protein [3]: 11.9 nM
CUCGUGUAAGGAUAUAUGAGUCACGGAAAUAAACCGUGAAGAUAGAAGGUACAUGAGGAUCACCCAUGUAAAAC [Mod of Anonveat 4 - Jieux - Exclusion 4] (Eterna round: R97, puzzle: Exclusion 4) | 124 | 99.4 | – | –
CUCGUGUCGGAGGAUAUCCAGCGCGAAAAUAAAGGAGAAGGCCGCACAUGAGGAUCACCCAUGUAACAUGGUCC [Onbier] (puzzle: Exclusion 6) | – | – | 44.8 | –
CUCGUGUGAGGAUAUCUAUUCCACGGACGGGAGUCUUGAUGAGAGAAGGCACAUGAGGAUCACCCAUGUAAUAA [Laveinxe] (puzzle: Exclusion 4) | – | – | 105 | –
CUCUUGAGUCAGGAUAUCGAGAGGCUAAUAAAACGAGAAGGGACUACAUGAGGAUCACCCAUGUGAUCGCAAAA [Geonge] (Eterna round: R97, puzzle: Exclusion 6) | 433 | 61.7 | – | –
CUCUUGGCAGGAUAUGCUCUCUUAGACAUGAGGAUCACCCAUGUGUUCAUUCUUUCUUUUGCAGAAGGGCCUUAAC [JR_E5_Sub046] (Eterna round: R96, puzzle: Exclusion 5) | 128 | 76.9 | – | apparent KD of MS2 coat protein [4]: 57.9 nM
CUCUUGGCAGGAUAUGCUCUCUUAGACAUGAGGAUCACCCAUGUGUUCAUUCUUUCUUUUGCAGAAGGGCCUUAAC [JR_E5_Sub046] (puzzle: Exclusion 5) | – | – | 65.2 | –
CUCUUGUCAGGAUAUCUAAGCUGCCUCCCAGUAGCCGAAUUAGAGAAGGGACAUGAGGAUCACCCAUGUAAACG [Enaeren] (puzzle: Exclusion 4) | – | – | 106 | –
CUCUUGUCAGGAUAUCUAAGCUGCCUCCCGGUAGCCGAAUUAGAGAAGGGACAUGAGGAUCACCCAUGUAAAAG [Qubile] (puzzle: Exclusion 4) | – | – | 160 | apparent KD of MS2 coat protein [1]: 58.3 nM; apparent KD of MS2 coat protein [3]: 280 nM
CUCUUGUUAGGAUAUCAAACCGGCGGCGGAGCCGCCGGAAGUGAGAAGGGACAUGAGGAUCACCCAUGUAAGAA [Maorgees] (puzzle: Exclusion 4) | – | – | 56.3 | –
CUGAACCCGGUAGGAUAUAUUGUGGGCAAGCAUGGAACGACAUGAGGAUCACCCAUGUAAUUUAGGUAGAAGGGCCAAAAGAUU [Excl-NG2-LRO09] (Eterna round: R96, puzzle: Exclusion NG 2) | 34.6 | 53.9 | – | apparent KD of MS2 coat protein [4]: 28.9 nM
CUGAACCCGGUAGGAUAUAUUGUGGGCAAGCAUGGAACGACAUGAGGAUCACCCAUGUAAUUUAGGUAGAAGGGCCGAGAGAUU [Excl-NG2-LRO11] (Eterna round: R96, puzzle: Exclusion NG 2) | 70.7 | 67.3 | – | apparent KD of MS2 coat protein [4]: 66.3 nM
CUGAAGGUGCAGGAUAUCCUGAAUAAGGGUUCAGGAGAAGGGCACACAUGAGGAUCACCCAUGUUAAUACUGCU [Eternabot (L2) Solution 54] (Eterna round: R97, puzzle: Exclusion 6) | 29.5 | 39.1 | – | –

Sequence | apparent KD of MS2 coat protein (input ligand: FMN 200 uM) [nM] | apparent KD of MS2 coat protein (input ligand: none) [nM] | apparent KD of MS2 coat protein [2] [nM] | also measured
CUGAGCAGACGGAGAUCCCACAUGAGGAUCACCCAUGUCUCAAAAGCUUUUUGCUUGUCUUAUUCUCCUCUGUUCUC [Arorza] (Eterna round: R96, puzzle: Sensor v3, turn-off variant 1) | 13.7 | 15.8 | – | apparent KD of MS2 coat protein [4]: 72.2 nM
CUGAGCAGACGGAGAUCCCACAUGAGGAUCACCCAUGUCUCAAAAGCUUUUUGCUUGUCUUAUUCUCCUCUGUUCUC [Arorza] (puzzle: Sensor v3, turn-off variant 1) | – | – | 100 | apparent KD of MS2 coat protein [1]: 13.9 nM; apparent KD of MS2 coat protein [3]: 11.4 nM
CUGAGCUGAGGAUAUACAUGAGGAUCACCCAUGUGAAGUAGCUUGCGUACAGGCAGAUGUAGAAGGCAGUUCGG [JL-ex3-3.31 Brourd mod] (puzzle: Exclusion 3) | – | – | 34.6 | –
CUGAGCUGAGGAUAUACAUGAGGAUCACCCAUGUGAAGUAGCUUGCGUACAGGCAGAUGUAGAAGGCAGUUCGG [Mod of JL 1 - Jieux - Exclusion 3] (Eterna round: R97, puzzle: Exclusion 3) | 250 | 42.1 | – | –
CUGAGCUGAGGAUAUACAUGAGGAUCACCCAUGUGUUCCAGCUUGGGUACAGGCACAUGUAGAAGGCAGUUCGG [Mod of JL - ex3-3.35 Brourd mod] (puzzle: Exclusion 3) | – | – | 62 | –
CUGAGCUGAGGAUAUACAUGAGGAUCACCCAUGUUAAGCAGCUAGUGAAGAAGUAGAUGUAGAAGGCAGUUCGG [Mod of JL 21 - Jieux - Exclusion 3] (Eterna round: R97, puzzle: Exclusion 3) | 75.2 | 21 | – | –
CUGAGGUAGCGGUCCUAUGACAUGAGGAUCACCCAUGUACCUUGCUUCGAGCUUAUUGCUCGUCUUAUGAUUCUCGG [Mat - Sensor v3 - turn-off var 1 - JL Mod - D33] (puzzle: Sensor v3, turn-off variant 1) | – | – | 714 | apparent KD of MS2 coat protein [1]: 551 nM; apparent KD of MS2 coat protein [3]: 613 nM
CUGAGGUAGCGGUCCUAUGACAUGAGGAUCACCCAUGUACCUUGCUUCGAGCUUUUAGCUCGUCUUAUGAUUCUCGG [Mat - Sensor v3 - turn-off var 1 - JL Mod - D36] (puzzle: Sensor v3, turn-off variant 1) | – | – | 502 | apparent KD of MS2 coat protein [1]: 423 nM; apparent KD of MS2 coat protein [3]: 522 nM
CUGAGGUAGCGGUCCUAUGACAUGAGGAUCACCCAUGUGCCUUGCUACAAGCUUUUUGCUCGUUUUAUGAUUCUCGG [JL Atriat mod 10] (puzzle: Sensor v3, turn-off variant 1) | – | – | 64.6 | apparent KD of MS2 coat protein [1]: 72.8 nM; apparent KD of MS2 coat protein [3]: 83.5 nM
CUGAGUAGUCAGGAUAUGCUGUACAAAAGUACAGCAGAAGGGACUACAUGAGGAUCACCCAUGUUUACUUCAUG [)mei Ex6 B22] (Eterna round: R97, puzzle: Exclusion 6) | 1260 | 821 | – | –
CUGAGUUAAGGAUAUACAUGAGGAUCACCCAUGUAAAGUAGCUUGCGUACAGGCAGAUGUAGAAGGUAAUUCGG [Mod of JL 8 - Jieux - Exclusion 3] (Eterna round: R97, puzzle: Exclusion 3) | 37.2 | – | – | –
CUGAGUUGAGGAUAUACAUGAGGAUCACCCAUGUAAAGUAGCUUGCGUACAGGCAGAUGUAGAAGGCAAUUCGG [Mod of JL 3 - Jieux - Exclusion 3] (Eterna round: R97, puzzle: Exclusion 3) | 37.6 | 24.5 | – | –
CUGAUGUCAGGAUAUCGGUGGCUCACUAAUGUGUGCCAGACCGAGAAGGGACAUGAGGAUCACCCAUGUCUUUA [Exclusion 4 (Mod5b of #36 by Marzena11)] (Eterna round: R97, puzzle: Exclusion 4) | 42.4 | 26.2 | – | –
CUGCAACAUGAGGAUCACCCAUGUCAGGAUAUUCCAAAAUCGUCGAAAGACGAUAACAGAAGAAGGGACAGUAG [Fiskxlusion 7 - Jieux - Exclusion 1] (Eterna round: R97, puzzle: Exclusion 1) | 44 | 35.6 | – | –
CUGCCAACGAAGCUUGUCGACAUGAGGAUCACCCAUGUUUCGCAAAGUGUUACAAAAAAAUAUCUGUAUGAAAAUGU [JR_Sensorv2_yov_Sub1319] (Eterna round: R96, puzzle: Sensor v2, turn-off variant) | 11.8 | 15.9 | – | apparent KD of MS2 coat protein [4]: 10.2 nM
CUGCGUAGAGGAUAUACAUGAGGAUCACCCAUGUGCUAAAUGACUGCAUGCAAAUCGUGUAGAAGGUUGAAGGG [Eternabot (L2) Solution 85] (Eterna round: R97, puzzle: Exclusion 3) | 34.6 | 40.4 | – | –
